This note sets out measurements from publication PMC11623921 (Nature chemical biology, 2023).

pKd: −log10 of the molar value.

The target of test [1] is TnmJ. Nature of the test: isothermal titration calorimetry. It counts as binding, Streptomyces sp. CB03234. The note with it: native substrate. For orientation: Isothermal titration calorimetry measures the heat released or taken up as one component is titrated into another.
For test [2], the target named is TnmJ (Streptomyces sp. CB03234). Nature of the test: crystal structure.
Test [3] shares this target. Briefly: SEC.

Take TNM I [compound 8]: the pKd (as a rule, the Kd on a negative log10 scale, so that one unit is a factor of ten) in test [1] was 5.47.

Consider TnmJ (enzyme), for which the stoichiometry N in test [2] and in test [3] was 2 throughout.
